Reference: PMC3214626

Biological target: Slc1-FLAG (SycE-like chaperone 1; CT043) (Chlamydia trachomatis)
Assay: SEC

Substance: Slc1-FLAG (SycE-like chaperone 1; CT043) (natural protein)
- stoichiometry N: 2
